Experimental data as given in PMC11767649, “Two Cysteines in Raf Kinase Inhibitor Protein Make Differential Contributions to Structural Dynamics In Vitro” (Molecules, 2025).
Where a chain is given by its changes, count along the chain named. Names may count otherwise.

B1: rhRKIP C133S mutant, histidine-tagged (natural protein, human, UniProt P30086 1-187, looked up)
chain: MPVDLSKWSGPLSLQEVDEQPQHPLHVTYAGAAVDELGKVLTPTQVKNRPTSISWDGLDSGKLYTLVLTDPDAPSRKDPKYREWHHFLVVNMKGNDISSGTVLSDYVGSGPPKGTGLHRYVWLVYEQDRPLKSDEPILSNRSGDHRGKFKVASFRKKYELRAPVAGTCYQAEWDDYVPKLYEQLSGK
notes: human RKIP (PEBP1), cDNA GenBank NM_002567 in pET28B+, site-directed mutant; Same construct as m1 with the point mutation; source: E. coli BL21(DE3), purified (Ni-NTA)
B2: rhRKIP C168A mutant, histidine-tagged (natural protein, human, UniProt P30086 1-187, looked up)
chain: B1 chain with S133C, C168A
notes: as for B1
B3: rhRKIP Ser153 to glutamate mutant, histidine-tagged (natural protein, human, UniProt P30086 1-187, looked up)
chain: B1 chain with S133C, S153E
notes: human RKIP (PEBP1), cDNA GenBank NM_002567 in pET28B+, site-directed mutant; Same construct as m1 with the point mutation; also called S153E; source: E. coli BL21(DE3), purified (Ni-NTA)
B4: rhRKIP C168S mutant, histidine-tagged (natural protein, human, UniProt P30086 1-187, looked up)
chain: B1 chain with S133C, C168S
notes: as for B1
B5: rhRKIP Ser153 to aspartate mutant, histidine-tagged (natural protein, human, UniProt P30086 1-187, looked up)
chain: B1 chain with S133C, S153D
notes: human RKIP (PEBP1), cDNA GenBank NM_002567 in pET28B+, site-directed mutant; Same construct as m1 with the point mutation; also called S153D; source: E. coli BL21(DE3), purified (Ni-NTA)
B6: rhRKIP Ser153 to alanine mutant, histidine-tagged (natural protein, human, UniProt P30086 1-187, looked up)
chain: B1 chain with S133C, S153A
notes: human RKIP (PEBP1), cDNA GenBank NM_002567 in pET28B+, site-directed mutant; Same construct as m1 with the point mutation; also called S153A; source: E. coli BL21(DE3), purified (Ni-NTA)

What was measured:
[1] = target: the molecule itself; assay: non-reducing SDS-PAGE; purified rhRKIP in sample loading buffer without β-mercaptoethanol or boiling; Coomassie Brilliant Blue staining or anti-His immunoblot
[2] = target: the molecule itself; assay: LC Q-TOF mass spectrometry; purified rhRKIP WT and mutant proteins in buffer at pH 7.4; peaks around 22 kDa (monomer) and 44 kDa (dimer)

Row | Protein | stoichiometry N [1] | stoichiometry N [2]
1 | B1 | 2 | –
2 | B2 | – | 2
3 | B3 | 2 | –
4 | B4 | 2 | –
5 | B5 | 2 | –
6 | B6 | 2 | –
